Values belong to the binder of their own block, whether it stands above or below them.
Target: human PSMA protein (ELISA) (human, UniProt Q04609 44-750)
Test: BLI (Octet)

Sequence of human PSMA protein (ELISA) (Q04609 44-750): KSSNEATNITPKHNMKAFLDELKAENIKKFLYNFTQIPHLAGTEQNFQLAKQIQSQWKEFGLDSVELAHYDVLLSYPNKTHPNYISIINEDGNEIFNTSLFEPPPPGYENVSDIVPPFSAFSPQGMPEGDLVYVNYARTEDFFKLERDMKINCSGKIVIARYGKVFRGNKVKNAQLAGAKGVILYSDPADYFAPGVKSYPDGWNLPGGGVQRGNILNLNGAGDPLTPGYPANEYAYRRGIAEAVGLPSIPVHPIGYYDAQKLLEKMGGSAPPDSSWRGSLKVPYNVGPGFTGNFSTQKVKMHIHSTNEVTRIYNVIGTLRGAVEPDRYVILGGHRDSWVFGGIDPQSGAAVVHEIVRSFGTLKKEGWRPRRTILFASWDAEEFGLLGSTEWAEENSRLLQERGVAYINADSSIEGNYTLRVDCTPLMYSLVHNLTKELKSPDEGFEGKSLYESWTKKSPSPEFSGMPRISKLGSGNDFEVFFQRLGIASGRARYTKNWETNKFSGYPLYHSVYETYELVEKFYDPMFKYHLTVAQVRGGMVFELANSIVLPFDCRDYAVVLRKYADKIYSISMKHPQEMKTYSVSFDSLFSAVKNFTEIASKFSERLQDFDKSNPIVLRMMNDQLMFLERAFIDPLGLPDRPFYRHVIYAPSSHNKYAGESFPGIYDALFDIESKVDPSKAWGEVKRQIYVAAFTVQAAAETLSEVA

Kd: 17 nM
B1: Anti-PSMA heavy chain-only antibody (UniAb) Clone ID 325972 (antibody, V domains shown)
VH: EVQLLESGGGVVQPGRSLRLSCAASGFSFSGYGMHWVRQAPGKEREWVAVISYDGSNKYYADSVKGRFTISRDNSKNTLYLQMNSLRAEDTAVYYCAKDANWGQHPDHTSFDYRGQGTLVTVSS

Kd: 24.9 nM
B2: Anti-PSMA heavy chain-only antibody (UniAb) Clone ID 325795 (antibody, V domains shown)
VH: EVQLLESGGGLVQPGGSLRLSCAASGFTFKFYAMSWVRQAPGKGPEWVSVISGSGGSTYYADSVKGRFTISRDNSKNTLHLQMNSLRAEDTAVYFCAKEIAEASRGFDYRGQGTLVTVSS

Source: patent US20240131074A1 (published 2024)
